The results in this text go back to patent US20220251152A1, “COMPOSITIONS AND METHODS FOR SELECTIVE PROTEIN DEGRADATION” (Novartis AG, priority 2019, published 2022).

The assay concerns CAR19 fused to HilD tag and/or FurON. Kind of assay: Flow cytometry of surface CAR expression on JNL cells, 10 μM lenalidomide and/or bazedoxifene 24 hours. It counts as cell-based, human. The following applies: surface CAR on transduced JNL cells; for CAR Expression: flow cytometry, FurON constructs only in presence of bazedoxifene; for Effect of bazedoxifene: with/without bazedoxifene.

Excerpt: Next, the surface expression of CAR19 on stably transduced JNL cells was examined by flow cytometry. […] On Day 2, cells were harvested, stained using biotinylated-protein L (Genscript, M00097) followed by PE conjugated streptavidin (Jackson Lab, 016-110-084), and subjected to flow cytometry analysis using Fortessa instrument.

B1: 765 (protein)
chain: MALPVTALLLPLALLLHAARPRSSLALSLTADQMVSALLDAEPPILYSEYDPTRPFSEASMMGLLTNLADRELVHMINWAKRVPGFVDLALHDQVHLLECAWMEILMIGLVWRSMEHPGKLLFAPNLLLDRNQGKCVEGGVEIFDMLLATSSRFRMMNLQGEEFVCLKSIILLNSGVYTFLSSTLKSLEEKDHIHRVLDKITDTLIHLMAKAGLTLQQQHQRLAQLLLILSHIRHMSSKRMEHLYSMKCKNVVPLSDLLLEMLDAHRLGTGAEDPRPSRKRRSLGDVGEIVMTQSPATLSLSPGERATLSCRASQDISKYLNWYQQKPGQAPRLLIYHTSRLHSGIPARFSGSGSGTDYTLTISSLQPEDFAVYFCQQGNTLPYTFGQGTKLEIKGGGGSGGGGSGGGGSQVQLQESGPGLVKPSETLSLTCTVSGVSLPDYGVSWIRQPPGKGLEWIGVIWGSETTYYQSSLKSRVTISKDNSKNQVSLKLSSVTAADTAVYYCAKHYYYGGSYAMDYWGQGTLVTVSSTTTPAPRPPTPAPTIASQPLSLRPEACRPAAGGAVHTRGLDFACDIYIWAPLAGTCGVLLLSLVITLYCKRGRKKLLYIFKQPFMRPVQTTQEEDGCSCRFPEEEEGGCELRVKFSRSADAPAYQQGQNQLYNELNLGRREEYDVLDKRRGRDPEMGGKPRRKNPQEGLYNELQKDKMAEAYSEIGMKGERRRGKGHDGLYQGLSTATKDTYDALHMQALPPR
B1: the “CAR Expression” value is listed as “Yes” and the Effect of bazedoxifene entry is on record as “Yes”. For the same molecule, where the note is “10 μM lenalidomide, 24 hours”, the Effect of lenalidomide result is “No”.

B2: 766 (protein)
chain: MALPVTALLLPLALLLHAARPRSSLALSLTADQMVSALLDAEPPILYSEYDPTRPFSEASMMGLLTNLADRELVHMINWAKRVPGFVDLALHDQVHLLECAWMEILMIGLVWRSMEHPGKLLFAPNLLLDRNQGKCVEGGVEIFDMLLATSSRFRMMNLQGEEFVCLKSIILLNSGVYTFLSSTLKSLEEKDHIHRVLDKITDTLIHLMAKAGLTLQQQHQRLAQLLLILSHIRHMSSKRMEHLYSMKCKNVVPLSDLLLEMLDAHRLGTGAEDPRPSRKRRSLGDVGEIVMTQSPATLSLSPGERATLSCRASQDISKYLNWYQQKPGQAPRLLIYHTSRLHSGIPARFSGSGSGTDYTLTISSLQPEDFAVYFCQQGNTLPYTFGQGTKLEIKGGGGSGGGGSGGGGSQVQLQESGPGLVKPSETLSLTCTVSGVSLPDYGVSWIRQPPGKGLEWIGVIWGSETTYYQSSLKSRVTISKDNSKNQVSLKLSSVTAADTAVYYCAKHYYYGGSYAMDYWGQGTLVTVSSTTTPAPRPPTPAPTIASQPLSLRPEACRPAAGGAVHTRGLDFACDIYIWAPLAGTCGVLLLSLVITLYCKRGRKKLLYIFKQPFMRPVQTTQEEDGCSCRFPEEEEGGCELRVKFSRSADAPAYQQGQNQLYNELNLGRREEYDVLDKRRGRDPEMGGKPRRKNPQEGLYNELQKDKMAEAYSEIGMKGERRRGKGHDGLYQGLSTATKDTYDALHMQALPPRGGGGSGGGGTGGGGSGMHKRSHTGERPFQCNQCGASFTQKGNLLRHIKLHTGEKPFKCHLCNTASAEARHIKAEMGGKPIPNPLLGLDST
Take B2: the “CAR Expression” value is reported as “Yes” and the Effect of bazedoxifene entry is “Yes”. Further, under “10 μM lenalidomide, 24 hours”, the “% reduction in CAR expression” value is reported as 92% and the Effect of lenalidomide entry is recorded as “Yes”.
